The text below walks through data of patent publication US20250277030A1 (Zymeworks, published 2025).

Assay [1] addresses T1, human sodium-dependent phosphate transporter 2B (NaPi2b) (human, UniProt O95436 1-690).
T1 construct: UniProt ID is given as 095436 [sic]; also called hNaPi2b; Hu NaPi2b
T1 sequence: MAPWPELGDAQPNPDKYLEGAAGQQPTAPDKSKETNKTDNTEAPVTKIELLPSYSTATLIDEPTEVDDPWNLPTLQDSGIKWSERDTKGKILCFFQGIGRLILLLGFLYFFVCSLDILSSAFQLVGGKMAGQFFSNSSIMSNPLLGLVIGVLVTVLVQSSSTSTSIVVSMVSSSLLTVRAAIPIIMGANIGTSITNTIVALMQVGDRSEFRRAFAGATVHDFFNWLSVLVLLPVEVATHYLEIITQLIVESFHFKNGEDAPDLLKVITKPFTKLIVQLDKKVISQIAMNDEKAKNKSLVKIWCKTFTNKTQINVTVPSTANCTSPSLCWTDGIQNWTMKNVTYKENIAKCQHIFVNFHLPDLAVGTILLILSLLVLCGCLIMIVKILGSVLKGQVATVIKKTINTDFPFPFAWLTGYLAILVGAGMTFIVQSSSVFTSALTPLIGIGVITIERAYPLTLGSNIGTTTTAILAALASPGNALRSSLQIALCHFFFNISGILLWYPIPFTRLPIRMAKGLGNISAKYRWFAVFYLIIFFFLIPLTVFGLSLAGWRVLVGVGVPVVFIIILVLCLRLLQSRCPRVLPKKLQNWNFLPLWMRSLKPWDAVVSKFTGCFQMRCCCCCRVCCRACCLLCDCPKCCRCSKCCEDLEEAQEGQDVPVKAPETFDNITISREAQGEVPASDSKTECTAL
Kind of assay: flow cytometry, IGROV-1 cells (endogenous NaPi2b), 24 h at 4 °C. The essentials: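 IGROV-1 cells were incubated with test antibody for 24 hours at 4° C to prevent internalization, then stained with anti-human IgG Fc AF647 for 30 min at 4° C. AF647 geometric mean fluorescence of live cells was measured by flow cytometry and plotted per antibody.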
On the technique in general: In flow cytometry, cells or beads pass a laser one at a time.

The target in assay [2] is T2, KLH (Sigma-Aldrich, H8283).
T2 construct: also called keyhole limpet hemocyanin
Kind of assay: non-specific binding ELISA, KLH coated at 5 µg/mL, antibody at 100 nM.
Procedure: NS-ELISA was carried out in Corning®96-well EIA/RIA Easy Wash™ Clear Flat Bottom Polystyrene High Bind Microplate coated overnight at 4° C. with 50 μL of Heparin (Sigma, H3149) diluted with 50 mM sodium carbonate pH 9.6 to a final concentration of 250 μg/mL. The plate was incubated for 2 days at room temperature, wells that were coated with heparin were not covered to allow air dry. […] 50 μL each of insulin, KLH, dsDNA and ssDNA were added to a 96 well plate, followed by the incubation at 37° C. for 2 h. The coating materials were removed, and the plate was blocked with 200 μL of Gibco™ PBS pH7.4, 0.1% Tween®20, and incubated for 1 h at room temperature with shaking at 200 rpm. The plate was washed 3 times with Gibco™ PBS pH7.4, 0.1% Tween 20. […] Reactions were stopped after approximately 10 minutes by adding 100 μL of 1 M HCl to each well, and absorbance was read at 450 nm. Binding scores were calculated as the ratio of the ELISA signal of the antibody (antibody-treated) to the signal of a well containing buffer instead of the primary antibody (untreated). The cutoffs considered for each binding molecule (ssDNA, KLH, insulin, dsDNA and heparin) were internally calculated, based on the average of Zymeworks Inc. produced antibodies and antibodies benchmarks published in the literature.

Assay [3] has as its target T1, human sodium-dependent phosphate …. Kind of assay: flow cytometry on HCC-78 cells (endogenous NaPi2b), 4 C, anti-human IgG Fc AF647 detection. How it is done:
(§1) Briefly, HEK293-6e cells were transfected for ˜24 hours to transiently express human NaPi2b, cynomolgus or mouse NaPi2b, at 1 μg of DNA per 1 million cells. Following transfection, 50,000 cells per well were seeded in V-bottom 96-well plates and incubated with 200 nM of primary antibody for 18-24 hours at 4° C. to prevent internalization. Post-incubation, cells were washed and stained with anti-Human IgG Fc AF647 conjugate (Jackson Immuno Research Labs, West Grove, PA, Cat. No. 109-605-098, Lot. No. 124868) at 4° C. for 1 hour. Following staining and washing, fluorescence was detected by flow cytometry on BD LSRFortessa™ Cell Analyzer (BD Biosciences, Franklin Lake, NJ) with 10,000 minimum events collected per well. The AF647/APC-A GeoMean (fluorescence signal geometric mean, proportional to anti-Human AF647 binding) was calculated for the live singlet cell population for each primary antibody using FlowJo™ v8 software (BD Biosciences, Franklin Lake, NJ). The Bmax and Kd of each primary antibody were calculated using GraphPad Prism Version 9 (GraphPad Software, San Diego, CA)
(§2) The ability of ADCs to bind to cells expressing NaPi2b was assessed. […] Binding to endogenous high NaPi2b-expressing cell lines IGROV-1 and HCC-78 was assessed by flow cytometry according to methods described in Example 5.

The target is the same in assay [4]. Briefly: flow cytometry, HEK293-6e cells transfected with human NaPi2b. How it is done: (§3) The binding cross-reactivity of humanized antibody variant v29456 to human, cynomolgus and mouse NaPi2b was assessed by flow cytometry using HEK293-6e transfected cells.
as §1

Assay [5] has the same target. Kind of assay: flow cytometry on IGROV-1 cells (endogenous NaPi2b), 4 C, anti-human IgG Fc AF647 detection. The method, then: as §1, §2
Assay [6] has the same target. Briefly: flow cytometry, HEK293-6e cells transfected with human NaPi2b; apparent Kd. How it is done:
as §3, §1

For assay [7] the target is unchanged. Briefly: flow cytometry, IGROV-1 cells (endogenous NaPi2b). The method, then: as §1, §2
The target is the same in assay [8]. Kind of assay: flow cytometry, IGROV-1 cells (endogenous NaPi2b); apparent Kd. The method, then: (§4) Briefly, cells were seeded at 50,000 cells/well in conical-bottom 96-well plates and treated with test antibody for 24 hours at 4° C. to prevent internalization. […] Following incubation, cells were washed and stained with anti-Human IgG Fc AF647 conjugate (Jackson Immuno Research Labs, West Grove, PA; Cat. No. 109-605-098) at 4° C. for 30 min. Following incubation and washing, fluorescence was detected by flow cytometry on a BD LSRFortessa™ Cell Analyzer (BD Biosciences, Franklin Lake, NJ) with 1,000 minimum events collected per well. The AF647/APC-A GeoMean (fluorescence signal geometric mean, proportional to anti-Human AF647 binding) was calculated for the live cell population using FlowJo™ Version 10.8.1 (BD Biosciences, Franklin Lake, NJ) and plotted for each test antibody using GraphPad Prism Version 9 (GraphPad Software, San Diego, CA).
(§5) The ability of the humanized antibody variants v38591 and v29456 to bind to NaPi2b expressed on cells was assessed on endogenous NaPi2b-expressing tumor cell lines IGROV-1 (ovarian adenocarcinoma) and TOV-21G (ovarian carcinoma) by flow cytometry.
(§6) Cellular binding was performed according to methods described in Example 13.

Assay [9] shares this target. Briefly: flow cytometry on IGROV-1 cells (endogenous NaPi2b), 24 h at 4 C, anti-human IgG Fc AF647 detection. How it is done: as §4, §5, §6
For assay [10] the target is unchanged. Kind of assay: cell-based or functional assay.

B1: v29456 humanized anti-NaPi2b antibody (H1L2) (antibody, human IgG1, kappa)
heavy: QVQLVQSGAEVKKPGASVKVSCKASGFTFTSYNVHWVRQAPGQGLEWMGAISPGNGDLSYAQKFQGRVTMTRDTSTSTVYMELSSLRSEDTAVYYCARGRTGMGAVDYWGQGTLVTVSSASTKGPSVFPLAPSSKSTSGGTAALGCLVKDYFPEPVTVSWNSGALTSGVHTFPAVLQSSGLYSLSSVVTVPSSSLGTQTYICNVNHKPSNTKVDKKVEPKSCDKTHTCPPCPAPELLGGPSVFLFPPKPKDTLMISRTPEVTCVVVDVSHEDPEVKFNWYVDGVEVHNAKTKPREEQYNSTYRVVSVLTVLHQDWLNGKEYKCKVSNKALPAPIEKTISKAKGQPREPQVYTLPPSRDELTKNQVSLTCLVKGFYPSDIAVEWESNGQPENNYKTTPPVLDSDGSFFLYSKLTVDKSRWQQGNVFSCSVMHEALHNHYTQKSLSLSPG
light: DVQMTQSPSSLSASVGDRVTITCRASQDVYSYLNWYQQKPGKAVKLLIYYTSRLQSGVPSRFSGSGSGTDYTLTISSLQPEDFATYYCQQYNIFPWTFGQGTKLEIKRTVAAPSVFIFPPSDEQLKSGTASVVCLLNNFYPREAKVQWKVDNALQSGNSQESVTEQDSKDSTYSLSSTLTLSKADYEKHKVYACEVTHQGLSSPVTKSFNRGEC
Regarding B1, the “Bmax (MFI)” value in assay [1] worked out at 40900 MFI; in assay [7] it was 78100 MFI. Further, the “NS-ELISA binding score (ratio of signal between antibody-treated and untreated)” value in [2] was 1.37 ratio. The results for the “EC50 (read off the curve)” value in assay [3], in assay [5] and in assay [9] were approximately 2 nM, approximately 0.6 nM and approximately 1 nM, respectively. In assay [4], the “Bmax (APC-A GeoMean)” value came to 2540 APC-A GeoMean. Moreover, the figures for the Kd in assay [6] and in assay [8] were 5.2 nM and 1.28 nM, respectively. Further, the “Internalized Fluorescence Fold-Over Palivizumab, HCC-78, 5 hrs” value in [10] is 25.3 fold. Further, in assay [10], the “Internalized Fluorescence Fold-Over Palivizumab, HCC-78, 24 hrs” value came to 59.9 fold. In addition, the “Internalized Fluorescence Fold-Over Palivizumab, NCI-H441, 5 hrs” value in [10] amounted to 2.4 fold. In addition, the “Internalized Fluorescence Fold-Over Palivizumab, NCI-H441, 24 hrs” value in assay [10] was determined as 4 fold.
